Measurements as given in patent US20200199241A1 (Chugai, published 2020).

What was measured:
Experiment in all cases: SPR, captured antibody;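 note: antibody captured on a sensor chip, Fcγ receptor flowed over at 25 °C, receptor binding normalized to the captured antibody amount and expressed relative to the reference antibody ×100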
human FcγRIIb = target: T1, human FcγRIIb (human, UniProt P31994 43-217, limits assumed)
T1 construct: also called FcgRIIb; hFcgRIIb
T1 sequence: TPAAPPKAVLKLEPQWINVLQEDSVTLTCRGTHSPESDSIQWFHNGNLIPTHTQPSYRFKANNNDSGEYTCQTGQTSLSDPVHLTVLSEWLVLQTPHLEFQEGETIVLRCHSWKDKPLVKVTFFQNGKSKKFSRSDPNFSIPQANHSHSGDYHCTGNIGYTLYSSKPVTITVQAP

human FcγRIa = target: T2, human FcγRIa (human, UniProt P12314 16-292, limits assumed)
T2 construct: also called FcgRIa; hFcgRIa
T2 sequence (P12314 16-292 limits assumed): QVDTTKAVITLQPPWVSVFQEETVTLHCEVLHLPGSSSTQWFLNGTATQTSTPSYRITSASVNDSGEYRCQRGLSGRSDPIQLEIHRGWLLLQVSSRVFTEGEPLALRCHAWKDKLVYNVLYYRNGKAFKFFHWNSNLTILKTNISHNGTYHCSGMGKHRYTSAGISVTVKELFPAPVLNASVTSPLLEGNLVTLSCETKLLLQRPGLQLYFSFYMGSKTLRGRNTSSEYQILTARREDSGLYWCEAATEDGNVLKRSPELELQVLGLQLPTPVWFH

human FcγRIIa(R) = target: T3, human FcγRIIa(R) (human, UniProt P12318 36-217)
T3 construct: also called FcgRIIaR; hFcgRIIa(R)
T3 chain: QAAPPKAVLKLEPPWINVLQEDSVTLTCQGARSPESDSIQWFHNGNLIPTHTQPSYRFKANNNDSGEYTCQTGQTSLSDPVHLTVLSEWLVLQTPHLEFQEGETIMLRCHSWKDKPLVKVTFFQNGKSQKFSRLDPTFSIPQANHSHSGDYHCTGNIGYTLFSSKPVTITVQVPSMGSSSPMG

human FcγRIIa(H) = target: T4, human FcγRIIa(H) (human, UniProt P12318 36-217)
T4 construct: also called FcgRIIaH; hFcgRIIa(H)
T4 sequence: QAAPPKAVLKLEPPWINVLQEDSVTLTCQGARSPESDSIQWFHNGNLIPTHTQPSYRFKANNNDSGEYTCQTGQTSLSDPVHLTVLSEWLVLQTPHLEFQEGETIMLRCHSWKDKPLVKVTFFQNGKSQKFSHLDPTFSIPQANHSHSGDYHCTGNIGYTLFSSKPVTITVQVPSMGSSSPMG

Binder	relative binding activity (human FcγRIIb)	relative binding activity (human FcγRIa)	relative binding activity (human FcγRIIa(R))	relative binding activity (human FcγRIIa(H))
GpH7-B3 P329K/GpL16-k0 (antibody, human IgG1, B3 variant; copies: 2 + 2) heavy: not shown light: DIVMTQSPLSLPVTPGEPASISCQASESLVHSNRNTYLHWYLQKPGQSPQLLIYKVSNRFSGVPDRFSGSGSGTDFTLKISRVEAEDVGVYYCSQNTHVPPTFGQGTKVEIE	-2 % of GpH7-B3/GpL16-k0	6 % of GpH7-B3/GpL16-k0	-2 % of GpH7-B3/GpL16-k0	-1 % of GpH7-B3/GpL16-k0
GpH7-B3 A327P/GpL16-k0 (antibody, human IgG1, B3 variant; copies: 2 + 2) heavy: not shown light: DIVMTQSPLSLPVTPGEPASISCQASESLVHSNRNTYLHWYLQKPGQSPQLLIYKVSNRFSGVPDRFSGSGSGTDFTLKISRVEAEDVGVYYCSQNTHVPPTFGQGTKVEIE	18 % of GpH7-B3/GpL16-k0	95 % of GpH7-B3/GpL16-k0	14 % of GpH7-B3/GpL16-k0	16 % of GpH7-B3/GpL16-k0
GpH7-B3 A327H/GpL16-k0 (antibody, human IgG1, B3 variant; copies: 2 + 2) heavy: not shown light: DIVMTQSPLSLPVTPGEPASISCQASESLVHSNRNTYLHWYLQKPGQSPQLLIYKVSNRFSGVPDRFSGSGSGTDFTLKISRVEAEDVGVYYCSQNTHVPPTFGQGTKVEIE	35 % of GpH7-B3/GpL16-k0	93 % of GpH7-B3/GpL16-k0	32 % of GpH7-B3/GpL16-k0	23 % of GpH7-B3/GpL16-k0
GpH7-B3 A327Q/GpL16-k0 (antibody, human IgG1, B3 variant; copies: 2 + 2) heavy: not shown light: DIVMTQSPLSLPVTPGEPASISCQASESLVHSNRNTYLHWYLQKPGQSPQLLIYKVSNRFSGVPDRFSGSGSGTDFTLKISRVEAEDVGVYYCSQNTHVPPTFGQGTKVEIE	29 % of GpH7-B3/GpL16-k0	94 % of GpH7-B3/GpL16-k0	34 % of GpH7-B3/GpL16-k0	47 % of GpH7-B3/GpL16-k0
GpH7-B3 N325I/GpL16-k0 (antibody, human IgG1, B3 variant; copies: 2 + 2) heavy: not shown light: DIVMTQSPLSLPVTPGEPASISCQASESLVHSNRNTYLHWYLQKPGQSPQLLIYKVSNRFSGVPDRFSGSGSGTDFTLKISRVEAEDVGVYYCSQNTHVPPTFGQGTKVEIE		94 % of GpH7-B3/GpL16-k0	76 % of GpH7-B3/GpL16-k0	8 % of GpH7-B3/GpL16-k0
GpH7-B3 A327T/GpL16-k0 (antibody, human IgG1, B3 variant; copies: 2 + 2) heavy: not shown light: DIVMTQSPLSLPVTPGEPASISCQASESLVHSNRNTYLHWYLQKPGQSPQLLIYKVSNRFSGVPDRFSGSGSGTDFTLKISRVEAEDVGVYYCSQNTHVPPTFGQGTKVEIE	37 % of GpH7-B3/GpL16-k0	64 % of GpH7-B3/GpL16-k0	27 % of GpH7-B3/GpL16-k0	12 % of GpH7-B3/GpL16-k0
GpH7-B3 A327S/GpL16-k0 (antibody, human IgG1, B3 variant; copies: 2 + 2) heavy: not shown light: DIVMTQSPLSLPVTPGEPASISCQASESLVHSNRNTYLHWYLQKPGQSPQLLIYKVSNRFSGVPDRFSGSGSGTDFTLKISRVEAEDVGVYYCSQNTHVPPTFGQGTKVEIE	62 % of GpH7-B3/GpL16-k0	88 % of GpH7-B3/GpL16-k0	59 % of GpH7-B3/GpL16-k0	51 % of GpH7-B3/GpL16-k0
GpH7-B3 A327V/GpL16-k0 (antibody, human IgG1, B3 variant; copies: 2 + 2) heavy: not shown light: DIVMTQSPLSLPVTPGEPASISCQASESLVHSNRNTYLHWYLQKPGQSPQLLIYKVSNRFSGVPDRFSGSGSGTDFTLKISRVEAEDVGVYYCSQNTHVPPTFGQGTKVEIE	43 % of GpH7-B3/GpL16-k0	97 % of GpH7-B3/GpL16-k0	46 % of GpH7-B3/GpL16-k0	17 % of GpH7-B3/GpL16-k0
GpH7-B3 A327R/GpL16-k0 (antibody, human IgG1, B3 variant; copies: 2 + 2) heavy: not shown light: DIVMTQSPLSLPVTPGEPASISCQASESLVHSNRNTYLHWYLQKPGQSPQLLIYKVSNRFSGVPDRFSGSGSGTDFTLKISRVEAEDVGVYYCSQNTHVPPTFGQGTKVEIE	-3 % of GpH7-B3/GpL16-k0	51 % of GpH7-B3/GpL16-k0	-11 % of GpH7-B3/GpL16-k0	-2 % of GpH7-B3/GpL16-k0
GpH7-B3 A327I/GpL16-k0 (antibody, human IgG1, B3 variant; copies: 2 + 2) heavy: not shown light: DIVMTQSPLSLPVTPGEPASISCQASESLVHSNRNTYLHWYLQKPGQSPQLLIYKVSNRFSGVPDRFSGSGSGTDFTLKISRVEAEDVGVYYCSQNTHVPPTFGQGTKVEIE	46 % of GpH7-B3/GpL16-k0	98 % of GpH7-B3/GpL16-k0	37 % of GpH7-B3/GpL16-k0	12 % of GpH7-B3/GpL16-k0
GpH7-B3 A327W/GpL16-k0 (antibody, human IgG1, B3 variant; copies: 2 + 2) heavy: not shown light: DIVMTQSPLSLPVTPGEPASISCQASESLVHSNRNTYLHWYLQKPGQSPQLLIYKVSNRFSGVPDRFSGSGSGTDFTLKISRVEAEDVGVYYCSQNTHVPPTFGQGTKVEIE	34 % of GpH7-B3/GpL16-k0	100 % of GpH7-B3/GpL16-k0	34 % of GpH7-B3/GpL16-k0	21 % of GpH7-B3/GpL16-k0
GpH7-B3 A330P/GpL16-k0 (antibody, human IgG1, B3 variant; copies: 2 + 2) heavy: not shown light: DIVMTQSPLSLPVTPGEPASISCQASESLVHSNRNTYLHWYLQKPGQSPQLLIYKVSNRFSGVPDRFSGSGSGTDFTLKISRVEAEDVGVYYCSQNTHVPPTFGQGTKVEIE	39 % of GpH7-B3/GpL16-k0	87 % of GpH7-B3/GpL16-k0	42 % of GpH7-B3/GpL16-k0	25 % of GpH7-B3/GpL16-k0
GpH7-B3 S298W/GpL16-k0 (antibody, human IgG1, B3 variant; copies: 2 + 2) heavy: not shown light: DIVMTQSPLSLPVTPGEPASISCQASESLVHSNRNTYLHWYLQKPGQSPQLLIYKVSNRFSGVPDRFSGSGSGTDFTLKISRVEAEDVGVYYCSQNTHVPPTFGQGTKVEIE		69 % of GpH7-B3/GpL16-k0	19 % of GpH7-B3/GpL16-k0	17 % of GpH7-B3/GpL16-k0
GpH7-B3 A327M/GpL16-k0 (antibody, human IgG1, B3 variant; copies: 2 + 2) heavy: not shown light: DIVMTQSPLSLPVTPGEPASISCQASESLVHSNRNTYLHWYLQKPGQSPQLLIYKVSNRFSGVPDRFSGSGSGTDFTLKISRVEAEDVGVYYCSQNTHVPPTFGQGTKVEIE	40 % of GpH7-B3/GpL16-k0	95 % of GpH7-B3/GpL16-k0	38 % of GpH7-B3/GpL16-k0	55 % of GpH7-B3/GpL16-k0
GpH7-B3 A327L/GpL16-k0 (antibody, human IgG1, B3 variant; copies: 2 + 2) heavy: not shown light: DIVMTQSPLSLPVTPGEPASISCQASESLVHSNRNTYLHWYLQKPGQSPQLLIYKVSNRFSGVPDRFSGSGSGTDFTLKISRVEAEDVGVYYCSQNTHVPPTFGQGTKVEIE	34 % of GpH7-B3/GpL16-k0	98 % of GpH7-B3/GpL16-k0	31 % of GpH7-B3/GpL16-k0	16 % of GpH7-B3/GpL16-k0
GpH7-B3 A330S/GpL16-k0 (antibody, human IgG1, B3 variant; copies: 2 + 2) heavy: not shown light: DIVMTQSPLSLPVTPGEPASISCQASESLVHSNRNTYLHWYLQKPGQSPQLLIYKVSNRFSGVPDRFSGSGSGTDFTLKISRVEAEDVGVYYCSQNTHVPPTFGQGTKVEIE	-3 % of GpH7-B3/GpL16-k0	58 % of GpH7-B3/GpL16-k0	0 % of GpH7-B3/GpL16-k0	0 % of GpH7-B3/GpL16-k0
GpH7-B3 A327Y/GpL16-k0 (antibody, human IgG1, B3 variant; copies: 2 + 2) heavy: not shown light: DIVMTQSPLSLPVTPGEPASISCQASESLVHSNRNTYLHWYLQKPGQSPQLLIYKVSNRFSGVPDRFSGSGSGTDFTLKISRVEAEDVGVYYCSQNTHVPPTFGQGTKVEIE	18 % of GpH7-B3/GpL16-k0	97 % of GpH7-B3/GpL16-k0	17 % of GpH7-B3/GpL16-k0	26 % of GpH7-B3/GpL16-k0
GpH7-B3 A327K/GpL16-k0 (antibody, human IgG1, B3 variant; copies: 2 + 2) heavy: not shown light: DIVMTQSPLSLPVTPGEPASISCQASESLVHSNRNTYLHWYLQKPGQSPQLLIYKVSNRFSGVPDRFSGSGSGTDFTLKISRVEAEDVGVYYCSQNTHVPPTFGQGTKVEIE	0 % of GpH7-B3/GpL16-k0	57 % of GpH7-B3/GpL16-k0	-8 % of GpH7-B3/GpL16-k0	0 % of GpH7-B3/GpL16-k0
GpH7-B3 A327F/GpL16-k0 (antibody, human IgG1, B3 variant; copies: 2 + 2) heavy: not shown light: DIVMTQSPLSLPVTPGEPASISCQASESLVHSNRNTYLHWYLQKPGQSPQLLIYKVSNRFSGVPDRFSGSGSGTDFTLKISRVEAEDVGVYYCSQNTHVPPTFGQGTKVEIE	22 % of GpH7-B3/GpL16-k0	95 % of GpH7-B3/GpL16-k0	17 % of GpH7-B3/GpL16-k0	37 % of GpH7-B3/GpL16-k0
